This data set addresses SARS-CoV-2 nucleocapsid protein (N-protein) (SARS-CoV-2, UniProt P0DTC9 1-419). Nature of the data set: FOPPR biosensor kinetics; 1x PBS pH 7.4, […]; temperature not stated. The conditions noted are these: protein: commercial; chain copies: 2.

B1: NP-A48 (ssDNA)
DNA: GCTGGATGTCGCTTACGACAATATTCCTTAGGGGCACCGCTACATTGACACATCCAGC
modifications: terminal amine (end not stated), coupled to carboxyl AuNP
B1 came in with a Kd of 2.63 nM.

B2: NP-A61 (ssDNA)
DNA: GCTGGATGTTGACCTTTACAGATCGGATTCTGTGGGGCGTTAAACTGACACATCCAGC
modifications: terminal amine (end not stated), coupled to carboxyl AuNP
Molecule B2 registered a Kd of 5.02 nM.

A word on the Kd: it is a measure of binding affinity in units of concentration. Read a high Kd as lower affinity.

The values above are taken from publication PMC9599074, “Integration of Power-Free and Self-Contained Microfluidic Chip with Fiber Optic Particle Plasmon Resonance Aptasensor for Rapid Detection of SARS-CoV-2 Nucleocapsid Protein”.
